Reference: patent US20230002480A1

Key:
Assay in all cases: cell-based or functional assay
[1] = target: HIV-1 Env of pseudovirus 928-28 (HIV-1)
[2] = target: HIV-1 Env of pseudovirus T257-31 (HIV-1)
[3] = target: HIV-1 Env of pseudovirus Ce2010_F5 (HIV-1)
[4] = target: HIV-1 Env of pseudovirus T250-4 (HIV-1)
[5] = target: HIV-1 Env of pseudovirus 3365.v2.c2 (HIV-1)
[6] = target: HIV-1 Env of pseudovirus BJOX009000.02.4 (HIV-1)
[7] = target: HIV-1 Env of pseudovirus 6952.v1.c20 (HIV-1)
[8] = target: HIV-1 Env of pseudovirus CNE21 (HIV-1)
[9] = target: HIV-1 Env of pseudovirus HIV-16055-2.3 (HIV-1)
[10] = target: HIV-1 Env of pseudovirus ZM109F.PB4 (HIV-1)
[11] = target: HIV-1 Env of pseudovirus Ce0682_E4 (HIV-1)
[12] = target: HIV-1 Env of pseudovirus 1012_11_TC21_3257 (HIV-1)
[13] = target: HIV-1 Env of pseudovirus X1254_c3 (HIV-1)
[14] = target: HIV-1 Env of pseudovirus 231966.c02 (HIV-1)
[15] = target: HIV-1 Env of pseudovirus CAAN5342.A2 (HIV-1)
[16] = target: HIV-1 Env of pseudovirus Ce1176_A3 (HIV-1)
[17] = target: HIV-1 Env of pseudovirus ZM197M.PB7 (HIV-1)
[18] = target: HIV-1 Env of pseudovirus X1632_S2_B10 (HIV-1)
[19] = target: HIV-1 Env of pseudovirus 235-47 (HIV-1)
[20] = target: HIV-1 Env of pseudovirus 7030102001E5(Rev-) (HIV-1)
[21] = target: HIV-1 Env of pseudovirus 211-9 (HIV-1)
[22] = target: HIV-1 Env of pseudovirus RHPA4259.7 (HIV-1)
[23] = target: HIV-1 Env of pseudovirus 3103.v3.c10 (HIV-1)
[24] = target: HIV-1 Env of pseudovirus P1981_C5_3 (HIV-1)
[25] = target: HIV-1 Env of pseudovirus TRJO4551.58 (HIV-1)
[26] = target: HIV-1 Env of pseudovirus MS208.A1 (HIV-1)
[27] = target: HIV-1 Env of pseudovirus 3016.v5.c45 (HIV-1)
[28] = target: HIV-1 Env of pseudovirus 0815.v3.c3 (HIV-1)
[29] = target: HIV-1 Env of pseudovirus C1080.c03 (HIV-1)
[30] = target: HIV-1 Env of pseudovirus 191955_A11 (HIV-1)
[31] = target: HIV-1 Env of pseudovirus HIV-001428-2.42 (HIV-1)
[32] = target: HIV-1 Env of pseudovirus Ce2060_G9 (HIV-1)
[33] = target: HIV-1 Env of pseudovirus 263-8 (HIV-1)
[34] = target: HIV-1 Env of pseudovirus BJOX028000.10.3 (HIV-1)
[35] = target: HIV-1 Env of pseudovirus 9004SS_A3_4 (HIV-1)
[36] = target: HIV-1 Env of pseudovirus ZM53M.PB12 (HIV-1)
[37] = target: HIV-1 Env of pseudovirus 6240_08_TA5_4622 (HIV-1)

## VRC07 (antibody)
[1]
  neutralization IC50: 0.278 µg/mL
  neutralization IC80: 0.957 µg/mL
[2]
  neutralization IC50: 0.421 µg/mL
  neutralization IC80: 3.17 µg/mL
[3]
  neutralization IC50: 0.131 µg/mL
  neutralization IC80: 0.48 µg/mL
[4]
  IC50, titer in TZM.bl cells: > 50 µg/mL
  IC80, titer in TZM.bl cells: > 50 µg/mL
[5]
  neutralization IC50: 0.038 µg/mL
  neutralization IC80: 0.109 µg/mL
[6]
  IC50, titer in TZM.bl cells: 0.806 µg/mL
  IC80, titer in TZM.bl cells: 2.9 µg/mL
[7]
  IC50, titer in TZM.bl cells: 0.064 µg/mL
  IC80, titer in TZM.bl cells: 0.181 µg/mL
[8]
  neutralization IC50: 0.05 µg/mL
  neutralization IC80: 0.222 µg/mL
[9]
  neutralization IC50: 0.025 µg/mL
  neutralization IC80: 0.135 µg/mL
[10]
  neutralization IC50: 0.112 µg/mL
  neutralization IC80: 0.389 µg/mL
[11]
  neutralization IC50: 0.039 µg/mL
  neutralization IC80: 0.239 µg/mL
[12]
  neutralization IC50: 0.014 µg/mL
  neutralization IC80: 0.045 µg/mL
[13]
  IC50, titer in TZM.bl cells: 0.041 µg/mL
  IC80, titer in TZM.bl cells: 0.2 µg/mL
[14]
  IC50, titer in TZM.bl cells: 0.105 µg/mL
  IC80, titer in TZM.bl cells: 0.471 µg/mL
[15]
  neutralization IC50: 0.307 µg/mL
  neutralization IC80: 1.05 µg/mL
[16]
  neutralization IC50: 0.52 µg/mL
  neutralization IC80: 2.6 µg/mL
[17]
  neutralization IC50: 0.307 µg/mL
  neutralization IC80: 1.27 µg/mL
[18]
  IC50, titer in TZM.bl cells: 0.023 µg/mL
  IC80, titer in TZM.bl cells: 0.107 µg/mL
[19]
  IC50, titer in TZM.bl cells: 0.024 µg/mL
  IC80, titer in TZM.bl cells: 0.075 µg/mL
[20]
  neutralization IC50: 0.205 µg/mL
  neutralization IC80: 0.911 µg/mL
[21]
  IC50, titer in TZM.bl cells: 5.92 µg/mL
  IC80, titer in TZM.bl cells: 38 µg/mL
[22]
  neutralization IC50: 0.017 µg/mL
  neutralization IC80: 0.048 µg/mL
[23]
  IC50, titer in TZM.bl cells: 0.675 µg/mL
  IC80, titer in TZM.bl cells: 1.95 µg/mL
[24]
  IC50, titer in TZM.bl cells: 0.213 µg/mL
  IC80, titer in TZM.bl cells: 0.609 µg/mL
[25]
  neutralization IC50: 0.032 µg/mL
  neutralization IC80: 0.125 µg/mL
[26]
  neutralization IC50: 0.12 µg/mL
  neutralization IC80: 0.425 µg/mL
[27]
  IC50, titer in TZM.bl cells: 0.095 µg/mL
  IC80, titer in TZM.bl cells: 0.392 µg/mL
[28]
  IC50, titer in TZM.bl cells: 0.015 µg/mL
  IC80, titer in TZM.bl cells: 0.051 µg/mL
[29]
  IC50, titer in TZM.bl cells: 2.03 µg/mL
  IC80, titer in TZM.bl cells: 8.25 µg/mL
[30]
  neutralization IC50: 0.978 µg/mL
  neutralization IC80: 4.82 µg/mL
[31]
  neutralization IC50: 0.004 µg/mL
  neutralization IC80: 0.016 µg/mL
[32]
  neutralization IC50: 0.085 µg/mL
  neutralization IC80: 0.422 µg/mL
[33]
  neutralization IC50: 0.103 µg/mL
  neutralization IC80: 0.282 µg/mL
[34]
  IC50, titer in TZM.bl cells: 0.011 µg/mL
  IC80, titer in TZM.bl cells: 0.069 µg/mL
[35]
  neutralization IC50: 0.218 µg/mL
  neutralization IC80: 0.75 µg/mL
[36]
  neutralization IC50: 0.275 µg/mL
  neutralization IC80: 1.29 µg/mL
[37]
  neutralization IC50: 0.448 µg/mL
  neutralization IC80: 1.54 µg/mL
